The target in the assay is human B7.1, membrane associated (human) (UniProt P33681). The experiment in a line: cell-based or functional assay.

Consider one substance from patent US7323170.

Chain of human B7.1, membrane associated (human) (P33681 35-288): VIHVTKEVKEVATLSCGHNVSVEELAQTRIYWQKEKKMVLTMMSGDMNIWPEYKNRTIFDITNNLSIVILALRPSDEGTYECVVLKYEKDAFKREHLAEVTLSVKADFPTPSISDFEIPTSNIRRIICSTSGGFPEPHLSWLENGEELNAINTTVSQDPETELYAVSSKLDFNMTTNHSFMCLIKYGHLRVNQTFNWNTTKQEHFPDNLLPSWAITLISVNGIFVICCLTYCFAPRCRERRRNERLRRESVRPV

“murine anti-B7.1 monoclonal antibody L307.4” gave an inhibition of IL-2 production in mixed lymphocyte reaction (concentration at which inhibitory) of 10 µg/mL.
